T1: RPAP1 (human, UniProt Q9BWH6 1-1393, limits assumed)
T1 sequence (looked up): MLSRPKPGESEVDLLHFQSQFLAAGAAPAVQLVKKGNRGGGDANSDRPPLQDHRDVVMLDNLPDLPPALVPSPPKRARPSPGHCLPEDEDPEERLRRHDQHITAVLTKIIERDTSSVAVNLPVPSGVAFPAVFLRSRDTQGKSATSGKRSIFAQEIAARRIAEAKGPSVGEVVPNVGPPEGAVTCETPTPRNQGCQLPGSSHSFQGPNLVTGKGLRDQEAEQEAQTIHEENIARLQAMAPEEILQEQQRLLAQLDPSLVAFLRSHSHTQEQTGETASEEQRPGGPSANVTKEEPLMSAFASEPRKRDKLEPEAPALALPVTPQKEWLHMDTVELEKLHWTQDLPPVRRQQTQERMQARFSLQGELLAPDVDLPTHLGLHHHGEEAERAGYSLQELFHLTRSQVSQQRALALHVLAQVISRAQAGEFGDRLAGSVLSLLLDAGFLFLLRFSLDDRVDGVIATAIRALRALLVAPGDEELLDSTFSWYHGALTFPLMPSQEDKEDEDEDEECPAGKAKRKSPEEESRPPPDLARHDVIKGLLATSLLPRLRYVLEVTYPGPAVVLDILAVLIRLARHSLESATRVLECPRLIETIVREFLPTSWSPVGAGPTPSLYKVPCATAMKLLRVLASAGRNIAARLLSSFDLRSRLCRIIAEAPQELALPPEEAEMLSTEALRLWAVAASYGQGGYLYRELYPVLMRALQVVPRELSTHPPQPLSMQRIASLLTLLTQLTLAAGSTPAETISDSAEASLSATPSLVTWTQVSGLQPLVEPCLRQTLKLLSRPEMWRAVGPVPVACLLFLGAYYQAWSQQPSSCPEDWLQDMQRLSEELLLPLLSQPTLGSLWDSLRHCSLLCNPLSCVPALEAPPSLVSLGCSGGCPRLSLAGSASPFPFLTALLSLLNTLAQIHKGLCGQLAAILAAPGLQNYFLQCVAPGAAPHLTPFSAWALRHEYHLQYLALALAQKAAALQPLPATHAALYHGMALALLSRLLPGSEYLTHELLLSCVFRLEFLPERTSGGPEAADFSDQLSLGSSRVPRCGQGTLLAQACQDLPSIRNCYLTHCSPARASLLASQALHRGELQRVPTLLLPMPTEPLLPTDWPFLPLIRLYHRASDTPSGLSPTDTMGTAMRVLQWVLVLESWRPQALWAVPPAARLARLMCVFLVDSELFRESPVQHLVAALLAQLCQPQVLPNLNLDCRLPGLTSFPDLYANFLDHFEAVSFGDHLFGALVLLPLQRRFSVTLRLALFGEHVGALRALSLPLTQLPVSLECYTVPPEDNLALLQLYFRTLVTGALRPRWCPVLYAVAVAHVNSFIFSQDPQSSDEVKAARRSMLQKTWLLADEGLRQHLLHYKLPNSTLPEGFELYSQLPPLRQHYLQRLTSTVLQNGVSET


What was measured:
AXL [1] = molecular target: T2, AXL (human, UniProt P30530 26-894, limits assumed); assay: IP/MS, U87 cells (summary of Example 1)
Description: (§1) Lysates were immunoprecipitated with FLAG affinity matrix and eluted with FLAG peptide. […] Protein gel slices were excised and in-gel digestion performed as previously described (83), with minor modifications. Gel slices were washed with 1:1 A cetonitrile and 100 mM ammonium bicarbonate for 30 min then dehydrated with 100% acetonitrile for 10 min until shrunk. The excess acetonitrile was then removed and the slices dried in speed-vacuum at room temperature for 10 min. Gel slices were reduced with 5 mM DTT for 30 min at 56° C. in an air thermostat, cooled down to room temperature, and alkylated with 11 mM IAA for 30 min with no light. Gel slices were then washed with 100 mM of ammonium bicarbonate and 100% acetonitrile for 10 min each. Excess acetonitrile was removed and dried in a speed-vacuum for 10 min at room temperature and the gel slices were re-hydrated in a solution of 25 ng/μl trypsin in 50 mM ammonium bicarbonate for 30 min on ice and digested overnight at 37° C. in an air thermostat. Digested peptides were collected and further extracted from gel slices in extraction buffer (1:2 ratio by volume of 5% formic acid:acetonitrile) at high speed, shaking in an air thermostat. […] The following modifications were used for protein identification and quantification: oxidation of methionine (M), acetylation of the protein N-terminus, and deamination for asparagine or glutamine (NQ).

EGFR [2] = molecular target: T3, EGFR (human, UniProt P00533 25-1210); assay: IP/MS, U87 cells (summary of Example 1)
T3 construct: also called epidermal growth factor receptor
Description: as §1

RPAP1 = molecular target: T1, RPAP1; assay: IP/MS, LZTR1 R810W-FLAG, U87
Outline: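 Gel slices were reduced with 5 mM DTT, alkylated with 11 mM IAA and digested overnight at 37° C. with trypsin. Peptides were analysed on an Orbitrap Fusion Tribrid by LC-MS/MS.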

AXL [3] = molecular target: T2, AXL; assay: IP/MS, LZTR1 R810W-FLAG, U87; spectral counts >2-fold against wild type
Description: as §1, with “(NQ). […]” for “(NQ).”

EGFR [4] = molecular target: T3, EGFR; assay: as above
Description: as §1, with “(NQ). […]” for “(NQ).”

Row | Binder | binding result (AXL [1]) | binding result (EGFR [2]) | binding result (RPAP1) | binding result (AXL [3]) | binding result (EGFR [4])
1 | LZTR1-FLAG (other, human, UniProt Q8N653 1-840, looked up, Expressed in HEK 293T, HeLa or U87 cells; used as cell lysate; also called LZTR1 wild type-FLAG; LZTR1 WT; not shown: FLAG tag at the C-terminus) MAGPGSTGGQIGAAALAGGARSKVAPSVDFDHSCSDSVEYLTLNFGPFETVHRWRRLPPCDEFVGARRSKHTVVAYKDAIYVFGGDNGKTMLNDLLRFDVKDCSWCRAFTTGTPPAPRYHHSAVVYGSSMFVFGGYTGDIYSNSNLKNKNDLFEYKFATGQWTEWKIEGRLPVARSAHGATVYSDKLWIFAGYDGNARLNDMWTIGLQDRELTCWEEVAQSGEIPPSCCNFPVAVCRDKMFVFSGQSGAKITNNLFQFEFKDKTWTRIPTEHLLRGSPPPPQRRYGHTMVAFDRHLYVFGGAADNTLPNELHCYDVDFQTWEVVQPSSDSEVGGAEVPERACASEEVPTLTYEERVGFKKSRDVFGLDFGTTSAKQPTQPASELPSGRLFHAAAVISDAMYIFGGTVDNNIRSGEMYRFQFSCYPKCTLHEDYGRLWESRQFCDVEFVLGEKEECVQGHVAIVTARSRWLRRKITQARERLAQKLEQEAAPVPREAPGVAAGGARPPLLHVAIREAEARPFEVLMQFLYTDKIKYPRKGHVEDVLLIMDVYKLALSFQLCRLEQLCRQYIEASVDLQNVLVVCESAARLQLSQLKEHCLNFVVKESHFNQVIMMKEFERLSSPLIVEIVRRKQQPPPRTPLDQPVDIGTSLIQDMKAYLEGAGAEFCDITLLLDGHPRPAHKAILAARSSYFEAMFRSFMPEDGQVNISIGEMVPSRQAFESMLRYIYYGEVNMPPEDSLYLFAAPYYYGFYNNRLQAYCKQNLEMNVTVQNVLQILEAADKTQALDMKRHCLHIIVHQFTKVSKLPTLRSLSQQLLLDIIDSLASHISDKQCAELGADI | binds | binds | – | – | –
2 | LZTR1 R810W-FLAG (other, human, UniProt Q8N653 1-840, looked up, Stably expressed in U87 cells by lentivirus; also called LZTR1-FLAG-R810W; LZTR1 RW; not shown: FLAG tag) MAGPGSTGGQIGAAALAGGARSKVAPSVDFDHSCSDSVEYLTLNFGPFETVHRWRRLPPCDEFVGARRSKHTVVAYKDAIYVFGGDNGKTMLNDLLRFDVKDCSWCRAFTTGTPPAPRYHHSAVVYGSSMFVFGGYTGDIYSNSNLKNKNDLFEYKFATGQWTEWKIEGRLPVARSAHGATVYSDKLWIFAGYDGNARLNDMWTIGLQDRELTCWEEVAQSGEIPPSCCNFPVAVCRDKMFVFSGQSGAKITNNLFQFEFKDKTWTRIPTEHLLRGSPPPPQRRYGHTMVAFDRHLYVFGGAADNTLPNELHCYDVDFQTWEVVQPSSDSEVGGAEVPERACASEEVPTLTYEERVGFKKSRDVFGLDFGTTSAKQPTQPASELPSGRLFHAAAVISDAMYIFGGTVDNNIRSGEMYRFQFSCYPKCTLHEDYGRLWESRQFCDVEFVLGEKEECVQGHVAIVTARSRWLRRKITQARERLAQKLEQEAAPVPREAPGVAAGGARPPLLHVAIREAEARPFEVLMQFLYTDKIKYPRKGHVEDVLLIMDVYKLALSFQLCRLEQLCRQYIEASVDLQNVLVVCESAARLQLSQLKEHCLNFVVKESHFNQVIMMKEFERLSSPLIVEIVRRKQQPPPRTPLDQPVDIGTSLIQDMKAYLEGAGAEFCDITLLLDGHPRPAHKAILAARSSYFEAMFRSFMPEDGQVNISIGEMVPSRQAFESMLRYIYYGEVNMPPEDSLYLFAAPYYYGFYNNRLQAYCKQNLEMNVTVQNVLQILEAADKTQALDMKRHCLHIIVHQFTKVSKLPTLWSLSQQLLLDIIDSLASHISDKQCAELGADI | – | – | binds | binds | binds

Reference: patent US20250262210A1 (TRUSTEES OF COLUMBIA UNIVERSITY IN THE CITY OF NEW YORK, published 2025)
